Assay results: PMC10063552, “Utilizing genetic code expansion to modify N-TIMP2 specificity towards MMP-2, MMP-9, and MMP-14” (Scientific Reports, 2023)

Key:
Experiment in all cases: enzyme inhibition assay (cleavage of a chromogenic substrate, fit to Morrison's tight binding equation); MMP-2ACT (0.6 nM), MMP-9CAT (3 nM) or MMP-14CAT (1 nM) incubated with 0-25 nM N-TIMP2 variant in 50 mM HEPES, 10 mM CaCl2, 0.05% Brij-35, 1 mM DTNB, pH 7.5, 1 h at 37 °C; then 100 µM chromogenic substrate, absorbance at 412 nm at 37 °C; Ki from three independent experiments
Details in all cases: both partners purified
[1] = molecular target: T1, activated MMP-2 (MMP-2ACT) (human, APMA-activated in vitro (propeptide 30-109 removed); catalytic Zn2+, structural Zn2+ and Ca2+ ions. Limits are not printed: full-length active chain taken from the UniProt feature. The tables label it)
T1 chain: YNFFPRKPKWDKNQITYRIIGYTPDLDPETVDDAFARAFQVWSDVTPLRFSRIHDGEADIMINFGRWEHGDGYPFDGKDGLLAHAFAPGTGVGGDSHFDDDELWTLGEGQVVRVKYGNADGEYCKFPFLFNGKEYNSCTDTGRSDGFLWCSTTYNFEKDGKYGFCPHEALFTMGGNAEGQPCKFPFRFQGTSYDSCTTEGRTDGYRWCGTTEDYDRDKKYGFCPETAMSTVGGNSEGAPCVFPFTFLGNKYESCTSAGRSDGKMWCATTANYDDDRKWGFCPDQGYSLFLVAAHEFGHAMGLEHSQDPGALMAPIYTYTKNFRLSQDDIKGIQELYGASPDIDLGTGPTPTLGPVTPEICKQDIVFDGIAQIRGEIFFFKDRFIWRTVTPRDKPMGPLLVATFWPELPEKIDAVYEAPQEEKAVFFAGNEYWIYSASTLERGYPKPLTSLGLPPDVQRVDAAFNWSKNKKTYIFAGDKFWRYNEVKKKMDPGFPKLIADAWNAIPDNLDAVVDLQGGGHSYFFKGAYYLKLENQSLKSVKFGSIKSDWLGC

[2] = molecular target: T2, human MMP-14 catalytic domain (MMP-14CAT) (human, UniProt P50281 112-292)
T2 construct: Matrix metalloproteinase-14 (MMP-14), human, catalytic domain, residues 112-292

[3] = molecular target: T3, human MMP-9 catalytic domain (MMP-9CAT) (human, UniProt P14780 107-215; P14780 391-443)
T3 construct: Matrix metalloproteinase-9 (MMP-9), human, catalytic domain, first stretch, residues 107-215; Matrix metalloproteinase-9 (MMP-9), human, catalytic domain, second stretch, residues 391-443 (residues 216-390 left out); no linker between the two stretches is stated
T3 chain (looked up): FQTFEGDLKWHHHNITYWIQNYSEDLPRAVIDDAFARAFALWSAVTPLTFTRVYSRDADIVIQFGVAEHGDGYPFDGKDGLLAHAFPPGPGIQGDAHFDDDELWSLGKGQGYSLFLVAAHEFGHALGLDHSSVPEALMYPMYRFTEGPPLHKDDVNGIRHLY

- Ki [1]: 0.233 nM
- Ki [2]: 0.711 nM
- Ki [3]: 0.322 nM
B1: N-terminal domain of TIMP2 (N-TIMP2), wild type (domain or fragment, human, UniProt P16035 27-153, looked up)
chain: CSCSPVHPQQAFCNADVVIRAKAVSEKEVDSGNDIYGNPIKRIQYEIKQIKMFKGPEKDIEFIYTAPSSAVCGVSLDVGGKKEYLIAGKAEGDGKMHITLCDFIVPWDTLSTTQKKSLNHRYQMGCE
notes: numbers count on: the mature protein (Cys1 is the N-terminal residue); Cloned into the pMECS vector; also called wild-type N-TIMP2; parental N-TIMP2; source: E. coli WK6, periplasmic extract, purified (Ni-NTA)
